Changes are numbered by the printed parent chain. Names may count otherwise. Like-named read-outs stand apart in the source and are kept apart here.

The chains are these.
B1: CyaY (E. coli homolog of frataxin) (natural protein, UniProt P27838 1-106, looked up)
chain: MNDSEFHRLADQLWLTIEERLDDWDGDSDIDCEINGGVLTITFENGSKIIINRQEPLHQVWLATKQGGYHFDLKGDEWICDRSGETFWDLLEQAATQQAGETVSFR
B2: IscS S10H, H247P, Q248L variant (enzyme, E. coli)
chain: MKLPIYLDYHATTPVDPRVAEKMMQFMTMDGTFGNPASRSHRFGWQAEEAVDIARNQIADLVGADPREIVFTSGATESDNLAIKGAANFYQKKGKHIITSKTEHKAVLDTCRQLEREGFEVTYLAPQRNGIIDLKELEAAMRDDTILVSIMHVNNEIGVVQDIAAIGEMCRARGIIYHVDATQSVGKLPIDLSQLKVDLMSFSGHKIYGPKGIGALYVRRKPRVRIEAQMHGGGHERGMRSGTLPVPLIVGMGEAYRIAKEEMATEMERLRGLRNRLWNGIKDIEEVYLNGDLEHGAPNILNVSFNYVEGESLIMALKDLAVSSGSACTSASLEPSYVLRALGLNDELAHSSIRFSLGRFTTEEEIDYTIELVRKSIGRLRDLSPLWEMYKQGVDLNSIEWAHH
B3: IscS S10N, H247P, Q248L variant (enzyme, E. coli)
chain: B2 chain with H10N
B4: IscS S10Q, H247P, Q248L variant (enzyme, E. coli)
chain: B2 chain with H10Q

One data set deals with IscS^QPL-IscU complex (E. coli, UniProt P0A6B7 1-404; P0ACD4 1-128, S10Q | H247P | Q248L). The data set can be described thus: native MS.
Data set [1] concerns the target B4. The experiment in a line: native MS.
Data set [2] concerns the molecule itself. The data set can be described thus: cell-based or functional assay.
Data set [3] deals with the molecule itself. The data set can be described thus: SEC. Background: Size exclusion chromatography separates by hydrodynamic size, large species first.
Data set [4] deals with the molecule itself.
Data set [5] deals with the molecule itself. The experiment in a line: SEC. The source holds these as a separate data set.

B1: the binding result (with IscS^QPL-IscU complex; in data set [1]) was “binds” each time.

In general, stoichiometry N refers to a count of units in the complex or per binding partner. A word on the Kd: it is the constant that tells how readily two partners part at equilibrium. A high value points to weaker binding. As for B2, the “cysteine desulfurase activity under standard conditions (kcat)” value (shortened to “cysteine desulfurase activity”) in data set [2] amounted to 0.025 s⁻¹. Moreover, the “stoichiometry N” value in “SEC [3]” is 2. Also, in data set [4], binding was put at a Kd of 8 µM.

As to B3, in data set [2], the “cysteine desulfurase activity” value was determined as 0.148 s⁻¹. Besides, the “stoichiometry N” value in “SEC [3]” amounted to 2. The molecule further had an equilibrium dissociation constant (Kd) in data set [4] of 0.8 µM.

For the molecule B4, the “cysteine desulfurase activity” value in data set [2] came to 0.00367 s⁻¹. Besides, the “stoichiometry N” value in “SEC [5]” worked out at 2. The molecule further had a Kd in data set [4] of 32 µM.
